Measured values published in patent publication US20240165226A1, “COMBINATION TREATMENT OF CD38-EXPRESSING TUMORS” (GENMAB A/S, priority 2006, published 2024).

Legend:
[1] = test system: JK6L (a multiple myeloma cell line); assay: ADCC set up II, JK6L cells; assay type: cell-based; details: in words
Description: Human blood from human volunteers (university Erlangen, Erlangen, Germany) was diluted twice in RPMI 1640 and blood cells were layered on Ficoll (Lymphocyte Separation Medium […], 710 g, RT, 20 min; BioWhittaker, Cambrex Bio Science Verviers, Verviers, Belgium, cat. 17-829E, lot no. 0148 32). Peripheral blood mononuclear cells (MNCs) were collected from the interphase, washed and resuspended in RPMI 1640 culture medium supplemented with 10% FCS, 2 mM L-glutamine, 5 U/ml penicillin, 50 μg/ml streptomycin (all derived from BioWhittaker) to which 25 mM HEPES (BioWhittaker) was added.
Target B-cells (fresh plasma cell leukemia tumor cells, JK6L and AMO-1 B-cell lines, obtained from Dr. T. Valerius, University of Erlangen, Erlangen, Germany) were labeled with 20 μCi ^51Cr (Amersham Biosciences, Uppsala, Sweden) for 2 hours. After extensive washing in RPMI-10, cells were adjusted to 1×10^5 cells/ml. […] After incubation (3 hr, 37° C.), assays were stopped by centrifugation, and 51Cr release from triplicates was measured in counts per minute (cpm) in a scintillation counter. Percentage of cellular cytotoxicity was calculated using the following formula: […]
with maximal ^51Cr release determined by adding perchloric acid (3% final concentration) to target cells, and basal release was measured in the absence of sensitizing antibodies and effector cells.

PBMCs = assay: Induction of proliferation of PBMC; assay type: cell-based, human; details: 1.1-30 μg/ml, 3H-thymidine incorporation, 10 donors
Description: -003, -005 and -024 were tested in an assay essentially as described in Ausiello et al., Tissue antigens 56, 538-547 (2000). Briefly, PBMCs from healthy donors were cultured at 1×10^5 cells/well in flat bottom 96-well plates in the presence of antibodies (final concentration: 1.1-3.3-10-30 μg/ml) in 200 μl RPMI^++. Stimulation of cells with IL-15 (at 333 ng/ml; Amgen Inc., Thousand Oaks, CA, USA) was used as positive control. After a 4 day incubation at 37° C., 30 μl ^3H-thymidine (16.7 μCi/ml) was added, and culture was continued O/N. ^3H-thymidine incorporation was assessed using a […] (Packard Instruments, Meriden, DT, USA), according to the manufacturer's instructions. Data are shown as the mean cpm (±SEM) of PBMCs obtained from 10 donors.

[2] = target: T1, CD38-transfected CHO (CHO-CD38) cells (Homo sapiens, UniProt P28907); assay: Binding to CD38-transfected CHO cells by flow cytometry; details: for binding to CHO-CD38 cells: in words
T1 construct: expressed in transfected cells; host or cells: CHO cells
Description: After harvesting and counting, Daudi-luc cells, CHO cells transfected with CD38 and control CHO cells were resuspended in PBS (1×10^6 cells/ml). Then, cells were put in 96-well V-bottom plates (100 μl/well) and washed twice in PBS-BSA (PBS supplemented with 0.1% BSA and 0.02% Na-azide). Thereafter, 50 μl antibody solution in PBS-BSA was added to the cells (4° C., 30 min). After washing three times in PBS-BSA, 50 μl (1:400 dilution) of rabbit anti-human IgG-FITC in PBS-BSA was added (4° C. in the dark, 30 min). Cells were washed three times and specific binding of CD38-antibodies to CHO-CD38 and Daudi-luc cells was detected by flow cytometry. HuMab-KLH (a human monoclonal antibody against KLH (keyhole limpet haemocyanin) generated by Genmab B.V., Utrecht, The Netherlands by use of the immunization protocols described elsewhere herein) was used as a control. […] No binding to control CHO cells is observed (data not shown).

Daudi-luc tumor cells = assay: In vivo SCID-luciferase experiments; design: species or system SCID mice
Source text: In this model tumor cells are transfected with firefly luciferase. Upon administration of luciferin (Molecular Probes, Leiden, The Netherlands) to the mice the labeled cells can be detected in vivo by bioluminescent imaging using a highly sensitive CCD camera, cf. Wetterwald et al., American Journal of Pathology 160(3), 1143-1153 (2002).
Daudi cells were transfected with gWIZ luciferase from Gene Therapy Systems (San Diego, CA) and cultured in RPMI with 10% FCS, Pen/Strep, Sodium Pyruvate and 1 μg/ml puromycin (Sigma). Cells were analysed for luciferase expression (expressed in RLU/1×10^5 cells) in a luminometer and for CD38 expression by FACS. 2.5×10^6 luciferase-transfected Daudi cells/mouse were injected i.v. into SCID mice. Mice were treated with -003, -005, isotype control antibody (HuMab-KLH) or rituximab (anti-CD20 antibody). Antibodies were injected intraperitoneally. Four treatment settings were used (see Table 4). In the preventive setting, antibody (100 μg/mouse) and cells were administered simultaneously. In therapeutic setting I, antibody (300 μg/mouse) was administered 7 days after administration of cells. In therapeutic setting II, antibody (10 μg/mouse) was administered 14 days after administration of cells. In therapeutic setting III, antibody (100 μg/mouse) was administered 7 days after administration of cells. For imaging, mice were anesthetized by i.p. injection of a mixture of ketamine/xylazine/atropine. Synthetic D-Luciferin (sodium salt, Molecular Probes) was given i.p. at a dose of 25 mg/ml. Mice were then placed in a light tight box and after 3 min, imaging was started using a VersArray 1300B liquid nitrogen cooled CCD detector (Roper Scientific). Photons emitted from the luciferase were counted over an exposure period of 5 min. Under illumination black and white images were made for reference. MetaVue software (Universal Imaging Corp) was used for data collection and image analysis. Statistical significance of differences between groups was established using one-way analysis of variance with a Newman-Keuls post test using GraphPad PRISM version 3.02 (Graphpad Software Inc).

-005: human monoclonal IgG1 anti-CD38 antibody, VL region SEQ ID No:12 and VH region SEQ ID No:17
lysis of JK6L by ADCC [1]: lysis is induced | proliferation of PBMCs (PBMCs): do not induce significant proliferation | EC50 CHO-CD38 ([2]; binding, flow cytometry): 0.23 µg/mL | binding to CHO-CD38 cells [2]: bind | inhibition of growth of tumor cells (Daudi-luc tumor cells; preventive setting, 100 μg/mouse, day 0, i.p.): inhibit growth of tumor cells | inhibition of growth of tumor cells (Daudi-luc tumor cells; therapeutic setting I, 300 μg/mouse, day 7, i.p.): inhibit growth of tumor cells

B1: -024: human monoclonal IgG1 anti-CD38 antibody, VL region SEQ ID No:22 and VH region SEQ ID No:27 (antibody, listed as Homo sapiens, V domains shown)
VH: EVQLVQSGAEVKKPGESLKISCKGSGYSFSNYWIGWVRQMPGKGLEWMGIIYPHDSDARYSPSFQGQVTFSADKSISTAYLQWSSLKASDTAMYYCARHVGWGSRYWYFDLWGRGTLVTVSS
VL: EIVLTQSPATLSLSPGERATLSCRASQSVSSYLAWYQQKPGQAPGLLIYDASNRASGIPARFSGSGSGTDFTLTISSLEPEDFAVYYCQQRSNWPLTFGGGTKVEIK
proliferation of PBMCs (PBMCs): did not induce significant proliferation | binding to CHO-CD38 cells [2]: bind | inhibition of Daudi-luc tumor cell growth (Daudi-luc tumor cells; therapeutic setting III, 100 μg/mouse, day 7, i.p.): clear inhibition
